Results reported in the supplement of paper PMC5998384.

Assays:
HeLa Kyoto [1] = test: thermal stability score vs G1/S (z-score of summed log2 fold changes over temperatures); higher = more thermally stable than in G1/S
HeLa Kyoto [2] = test: solubility change mitosis vs G1/S (difference of NP-40 vs SDS log2 ratios) (log2 ratio difference); higher = more soluble in mitosis
HeLa Kyoto [3] = test: melting temperature (median over replicates), in situ; higher = more thermally stable
HeLa Kyoto [4] = test: solubility in G1/S (NP-40 vs SDS abundance) (log2 ratio); higher = more soluble; settings: cell cycle stage: G1/S
[5] = cell cycle stage: early G1 (4.5 h after nocodazole release)
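Wherever melting temperature (median over replicates), in situ is given: HeLa Kyoto cells synchronized by double thymidine or nocodazole block, proteins quantified by TMT10plex mass spectrometry, three independent biological replicates.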
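Wherever solubility change mitosis vs G1/S (difference of NP-40 vs SDS log2 ratios) is given: synchronized HeLa Kyoto cells (double thymidine block for G1/S, nocodazole release for mitosis), protein amounts in NP-40 versus SDS lysates quantified by mass spectrometry, three biological replicates.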
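Wherever solubility in G1/S (NP-40 vs SDS abundance) is given: HeLa Kyoto cells arrested at G1/S by double thymidine block, proteins quantified by TMT10plex mass spectrometry in mild NP-40 versus SDS extracts, three biological replicates.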
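Wherever thermal stability score vs G1/S (z-score of summed log2 fold changes over temperatures) is given: synchronized HeLa Kyoto cells, proteins quantified by TMT10plex mass spectrometry, three biological replicates, mitosis taken 0.5 h after nocodazole release, G1/S directly after double thymidine block.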

CHAC2, sequence (chain, as listed by the source): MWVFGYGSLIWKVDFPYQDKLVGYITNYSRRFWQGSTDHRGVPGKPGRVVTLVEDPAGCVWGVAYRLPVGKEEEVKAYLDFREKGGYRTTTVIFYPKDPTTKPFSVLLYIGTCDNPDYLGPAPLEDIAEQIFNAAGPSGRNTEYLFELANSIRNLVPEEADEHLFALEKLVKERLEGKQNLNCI

Substance	thermal stability score (HeLa Kyoto [1]; [5])	thermal stability score (HeLa Kyoto [1]; cell cycle stage: mitosis)	solubility change mitosis (log2) (HeLa Kyoto [2])	melting temperature (HeLa Kyoto [3]; cell cycle stage: G1/S)	melting temperature (HeLa Kyoto [3]; cell cycle stage: mitosis)	solubility in G1/S (log2) (HeLa Kyoto [4])
MAGFWVGTAPLVAAGRRGRWPPQQLMLSAALRTLKHVLYYSRQCLMVSRNLGSVGYDPNEKTFDKILVANRGEIACRVIRTCKKMGIKTVAIHSDVDASSVHVKMADEAVCVGPAPTSKSYLNMDAIMEAIKKTRAQAVHPGYGFLSENKEFARCLAAEDVVFIGPDTHAIQAMGDKIESKLLAKKAEVNTIPGFDGVVKDAEEAVRIAREIGYPVMIKASAGGGGKGMRIAWDDEETRDGFRLSSQEAASSFGDDRLLIEKFIDNPRHIEIQVLGDKHGNALWLNERECSIQRRNQKVVEEAPSIFLDAETRRAMGEQAVALARAVKYSSAGTVEFLVDSKKNFYFLEMNTRLQVEHPVTECITGLDLVQEMIRVAKGYPLRHKQADIRINGWAVECRVYAEDPYKSFGLPSIGRLSQYQEPLHLPGVRVDSGIQPGSDISIYYDPMISKLITYGSDRTEALKRMADALDNYVIRGVTHNIALLREVIINSRFVKGDISTKFLSDVYPDGFKGHMLTKSEKNQLLAIASSLFVAFQLRAQHFQENSRMPVIKPDIANWELSVKLHDKVHTVVASNNGSVFSVEVDGSKLNVTSTWNLASPLLSVSVDGTQRTVQCLSREAGGNMSIQFLGTVYKVNILTRLAAELNKFMLEKVTEDTSSVLRSPMPGVVVAVSVKPGDAVAEGQEICVIEAMKMQNSMTAGKTGTVKSVHCQAGDTVGEGDLLVELE [PCCA]	-0.863	-1.1	-0.122	53.7 °C	53.1 °C	0.0361
DNAJB4	1.4	0.454	0.0771	49.3 °C	49.5 °C	0.0979
MSLDIQSLDIQCEELSDARWAELLPLLQQCQVVRLDDCGLTEARCKDISSALRVNPALAELNLRSNELGDVGVHCVLQGLQTPSCKIQKLSLQNCCLTGAGCGVLSSTLRTLPTLQELHLSDNLLGDAGLQLLCEGLLDPQCRLEKLQLEYCSLSAASCEPLASVLRAKPDFKELTVSNNDINEAGVRVLCQGLKDSPCQLEALKLESCGVTSDNCRDLCGIVASKASLRELALGSNKLGDVGMAELCPGLLHPSSRLRTLWIWECGITAKGCGDLCRVLRAKESLKELSLAGNELGDEGARLLCETLLEPGCQLESLWVKSCSFTAACCSHFSSVLAQNRFLLELQISNNRLEDAGVRELCQGLGQPGSVLRVLWLADCDVSDSSCSSLAATLLANHSLRELDLSNNCLGDAGILQLVESVRQPGCLLEQLVLYDIYWSEEMEDRLQALEKDKPSLRVIS [RNH1]	1.78	1.35	-0.113	52.8 °C	52.8 °C	0.188
MEALPLLAATTPDHGRHRRLLLLPLLLFLLPAGAVQGWETEERPRTREEECHFYAGGQVYPGEASRVSVADHSLHLSKAKISKPAPYWEGTAVIDGEFKELKLTDYRGKYLVFFFYPLDFTFVCPTEIIAFGDRLEEFRSINTEVVACSVDSQFTHLAWINTPRRQGGLGPIRIPLLSDLTHQISKDYGVYLEDSGHTLRGLFIIDDKGILRQITLNDLPVGRSVDETLRLVQAFQYTDKHGEVCPAGWKPGSETIIPDPAGKLKYFDKLN [PRDX4]	-1.92	-4.08	-0.0673	58.4 °C	62.8 °C	-0.00958
MPKRKAAGQGDMRQEPKRRSARLSAMLVPVTPEVKPKRTSSSRKMKTKSDMMEENIDTSAQAVAETKQEAVVEEDYNENAKNGEAKITEAPASEKEIVEVKEENIEDATEKGGEKKEAVAAEVKNEEEDQKEDEEDQNEEKGEAGKEDKDEKGEEDGKEDKNGNEKGEDAKEKEDGKKGEDGKGNGEDGKEKGEDEKEEEDRKETGDGKENEDGKEKGDKKEGKDVKVKEDEKEREDGKEDEGGNEEEAGKEKEDLKEEEEGKEEDEIKEDDGKKEEPQSIV [HMGN5]	-0.636	-5.4	0.272	59.9 °C	59.8 °C	0.255
MEMEKEFEQIDKSGSWAAIYQDIRHEASDFPCRVAKLPKNKNRNRYRDVSPFDHSRIKLHQEDNDYINASLIKMEEAQRSYILTQGPLPNTCGHFWEMVWEQKSRGVVMLNRVMEKGSLKCAQYWPQKEEKEMIFEDTNLKLTLISEDIKSYYTVRQLELENLTTQETREILHFHYTTWPDFGVPESPASFLNFLFKVRESGSLSPEHGPVVVHCSAGIGRSGTFCLADTCLLLMDKRKDPSSVDIKKVLLEMRKFRMGLIQTADQLRFSYLAVIEGAKFIMGDSSVQDQWKELSHEDLEPPPEHIPPPPRPPKRILEPHNGKCREFFPNHQWVKEETQEDKDCPIKEEKGSPLNAAPYGIESMSQDTEVRSRVVGGSLRGAQAASPAKGEPSLPEKDEDHALSYWKPFLVNMCVATVLTAGAYLCYRFLFNSNT [PTPN1]	1.7	4.54	-0.122	49.4 °C	50.1 °C	0.0951
MLSRAVCGTSRQLAPVLGYLGSRQKHSLPDLPYDYGALEPHINAQIMQLHHSKHHAAYVNNLNVTEEKYQEALAKGDVTAQIALQPALKFNGGGHINHSIFWTNLSPNGGGEPKGELLEAIKRDFGSFDKFKEKLTAASVGVQGSGWGWLGFNKERGHLQIAACPNQDPLQGTTGLIPLLGIDVWEHAYYLQYKNVRPDYLKAIWNVINWENVTERYMACKK [SOD2]	-0.479	-0.233	0.133	58.3 °C	56.8 °C	0.614
MADIDNKEQSELDQDLDDVEEVEEEETGEETKLKARQLTVQMMQNPQILAALQERLDGLVETPTGYIESLPRVVKRRVNALKNLQVKCAQIEAKFYEEVHDLERKYAVLYQPLFDKRFEIINAIYEPTEEECEWKPDEEDEISEELKEKAKIEDEKKDEEKEDPKGIPEFWLTVFKNVDLLSDMVQEHDEPILKHLKDIKVKFSDAGQPMSFVLEFHFEPNEYFTNEVLTKTYRMRSEPDDSDPFSFDGPEIMGCTGCQIDWKKGKNVTLKTIKKKQKHKGRGTVRTVTKTVSNDSFFNFFAPPEVPESGDLDDDAEAILAADFEIGHFLRERIIPRSVLYFTGEAIEDDDDDYDEEGEEADEEGEEEGDEENDPDYDPKKDQNPAECKQQ [NAP1L1]	2.07	2.03	-0.0741	49.7 °C	50.9 °C	0.329
MKALDEPPYLTVGTDVSAKYRGAFCEAKIKTAKRLVKVKVTFRHDSSTVEVQDDHIKGPLKVGAIVEVKNLDGAYQEAVINKLTDASWYTVVFDDGDEKTLRRSSLCLKGERHFAESETLDQLPLTNPEHFGTPVIGKKTNRGRRSNHIPEEESSSSSSDEDEDDRKQIDELLGKVVCVDYISLDKKKALWFPALVVCPDCSDEIAVKKDNILVRSFKDGKFTSVPRKDVHEITSDTAPKPDAVLKQAFEQALEFHKSRTIPANWKTELKEDSSSSEAEEEEEEEDDEKEKEDNSSEEEEEIEPFPEERENFLQQLYKFMEDRGTPINKRPVLGYRNLNLFKLFRLVHKLGGFDNIESGAVWKQVYQDLGIPVLNSAAGYNVKCAYKKYLYGFEEYCRSANIEFQMALPEKVVNKQCKECENVKEIKVKEENETEIKEIKMEEERNIIPREEKPIEDEIERKENIKPSLGSKKNLLESIPTHSDQEKEVNIKKPEDNENLDDKDDDTTRVDESLNIKVEAEEEKAKSGDETNKEEDEDDEEAEEEEEEEEEEEDEDDDDNNEEEEFECYPPGMKVQVRYGRGKNQKMYEASIKDSDVEGGEVLYLVHYCGWNVRYDEWIKADKIVRPADKNVPKIKHRKKIKNKLDKEKDKDEKYSPKNCKLRRLSKPPFQTNPSPEMVSKLDLTDAKNSDTAHIKSIEITSILNGLQASESSAEDSEQEDERGAQDMDNNGKEESKIDHLTNNRNDLISKEEQNSSSLLEENKVHADLVISKPVSKSPERLRKDIEVLSEDTDYEEDEVTKKRKDVKKDTTDKSSKPQIKRGKRRYCNTEECLKTGSPGKKEEKAKNKESLCMENSSNSSSDEDEEETKAKMTPTKKYNGLEEKRKSLRTTGFYSGFSEVAEKRIKLLNNSDERLQNSRAKDRKDVWSSIQGQWPKKTLKELFSDSDTEAAASPPHPAPEEGVAEESLQTVAEEESCSPSVELEKPPPVNVDSKPIEEKTVEVNDRKAEFPSSGSNSVLNTPPTTPESPSSVTVTEGSRQQSSVTVSEPLAPNQEEVRSIKSETDSTIEVDSVAGELQDLQSEGNSSPAGFDASVSSSSSNQPEPEHPEKACTGQKRVKDAQGGGSSSKKQKRSHKATVVNNKKKGKGTNSSDSEELSAGESITKSQPVKSVSTGMKSHSTKSPARTQSPGKCGKNGDKDPDLKEPSNRLPKVYKWSFQMSDLENMTSAERITILQEKLQEIRKHYLSLKSEVASIDRRRKRLKKKERESAATSSSSSSPSSSSITAAVMLTLAEPSMSSASQNGMSVECR [ARID4B]	0.255	0.983	0.0721	48.4 °C	49.6 °C	-0.276
MRSSCVLLTALVALAAYYVYIPLPGSVSDPWKLMLLDATFRGAQQVSNLIHYLGLSHHLLALNFIIVSFGKKSAWSSAQVKVTDTDFDGVEVRVFEGPPKPEEPLKRSVVYIHGGGWALASAKIRYYDELCTAMAEELNAVIVSIEYRLVPKVYFPEQIHDVVRATKYFLKPEVLQKYMVDPGRICISGDSAGGNLAAALGQQFTQDASLKNKLKLQALIYPVLQALDFNTPSYQQNVNTPILPRYVMVKYWVDYFKGNYDFVQAMIVNNHTSLDVEEAAAVRARLNWTSLLPASFTKNYKPVVQTTGNARIVQELPQLLDARSAPLIADQAVLQLLPKTYILTCEHDVLRDDGIMYAKRLESAGVEVTLDHFEDGFHGCMIFTSWPTNFSVGIRTRNSYIKWLDQNL [NCEH1]	-0.627	-0.868	-0.118	57.4 °C	57.7 °C	0.156
MASFVTEVLAHSGRLEKEDLGTRISRLTRRVEEIKGEVCNMISKKYSEFLPSMQSAQGLITQVDKLSEDIDLLKSRIESEVRRDLHVSTGEFTDLKQQLERDSVVLSLLKQLQEFSTAIEEYNCALTEKKYVTGAQRLEEAQKCLKLLKSRKCFDLKILKSLSMELTIQKQNILYHLGEEWQKLIVWKFPPSKDTSSLESYLQTELHLYTEQSHKEEKTPMPPISSVLLAFSVLGELHSKLKSFGQMLLKYILRPLASCPSLHAVIESQPNIVIIRFESIMTNLEYPSPSEVFTKIRLVLEVLQKQLLDLPLDTDLENEKTSTVPLAEMLGDMIWEDLSECLIKNCLVYSIPTNSSKLQQYEEIIQSTEEFENALKEMRFLKGDTTDLLKYARNINSHFANKKCQDVIVAARNLMTSEIHNTVKIIPDSKINVPELPTPDEDNKLEVQKVSNTQYHEVMNLEPENTLDQHSFSLPTCRISESVKKLMELAYQTLLEATTSSDQCAVQLFYSVRNIFHLFHDVVPTYHKENLQKLPQLAAIHHNNCMYIAHHLLTLGHQFRLRLAPILCDGTATFVDLVPGFRRLGTECFLAQMRAQKGELLERLSSARNFSNMDDEENYSAASKAVRQVLHQLKRLGIVWQDVLPVNIYCKAMGTLLNTAISEVIGKITALEDISTEDGDRLYSLCKTVMDEGPQVFAPLSEESKNKKYQEEVPVYVPKWMPFKELMMMLQASLQEIGDRWADGKGPLAAAFSSSEVKALIRALFQNTERRAAALAKIK [ZW10]	0.485	1.13	-0.19	49.6 °C	49.5 °C	-0.218
CHAC2	0.759	0.354	-0.0779	53 °C	51.9 °C	0.541
MASRCWRWWGWSAWPRTRLPPAGSTPSFCHHFSTQEKTPQICVVGSGPAGFYTAQHLLKHPQAHVDIYEKQPVPFGLVRFGVAPDHPEVKNVINTFTQTAHSGRCAFWGNVEVGRDVTVPELREAYHAVVLSYGAEDHRALEIPGEELPGVCSARAFVGWYNGLPENQELEPDLSCDTAVILGQGNVALDVARILLTPPEHLERTDITKAALGVLRQSRVKTVWLVGRRGPLQVAFTIKELREMIQLPGARPILDPVDFLGLQDKIKEVPRPRKRLTELLLRTATEKPGPAEAARQASASRAWGLRFFRSPQQVLPSPDGRRAAGVRLAVTRLEGVDEATRAVPTGDMEDLPCGLVLSSIGYKSRPVDPSVPFDSKLGVIPNVEGRVMDVPGLYCSGWVKRGPTGVIATTMTDSFLTGQMLLQDLKAGLLPSGPRPGYAAIQALLSSRGVRPVSFSDWEKLDAEEVARGQGTGKPREKLVDPQEMLRLLGH [FDXR]	0.0282	0.706	-0.0461	51.7 °C	51.8 °C	0.349
